From patent US20070218075
Positions count from the first letter of the chain named.

Key:
[1] = target: T1, 1Q FnbA mutant (recombinant Gln103Ala FnbA mutant, residues Ala1-Pro839)
T1 chain: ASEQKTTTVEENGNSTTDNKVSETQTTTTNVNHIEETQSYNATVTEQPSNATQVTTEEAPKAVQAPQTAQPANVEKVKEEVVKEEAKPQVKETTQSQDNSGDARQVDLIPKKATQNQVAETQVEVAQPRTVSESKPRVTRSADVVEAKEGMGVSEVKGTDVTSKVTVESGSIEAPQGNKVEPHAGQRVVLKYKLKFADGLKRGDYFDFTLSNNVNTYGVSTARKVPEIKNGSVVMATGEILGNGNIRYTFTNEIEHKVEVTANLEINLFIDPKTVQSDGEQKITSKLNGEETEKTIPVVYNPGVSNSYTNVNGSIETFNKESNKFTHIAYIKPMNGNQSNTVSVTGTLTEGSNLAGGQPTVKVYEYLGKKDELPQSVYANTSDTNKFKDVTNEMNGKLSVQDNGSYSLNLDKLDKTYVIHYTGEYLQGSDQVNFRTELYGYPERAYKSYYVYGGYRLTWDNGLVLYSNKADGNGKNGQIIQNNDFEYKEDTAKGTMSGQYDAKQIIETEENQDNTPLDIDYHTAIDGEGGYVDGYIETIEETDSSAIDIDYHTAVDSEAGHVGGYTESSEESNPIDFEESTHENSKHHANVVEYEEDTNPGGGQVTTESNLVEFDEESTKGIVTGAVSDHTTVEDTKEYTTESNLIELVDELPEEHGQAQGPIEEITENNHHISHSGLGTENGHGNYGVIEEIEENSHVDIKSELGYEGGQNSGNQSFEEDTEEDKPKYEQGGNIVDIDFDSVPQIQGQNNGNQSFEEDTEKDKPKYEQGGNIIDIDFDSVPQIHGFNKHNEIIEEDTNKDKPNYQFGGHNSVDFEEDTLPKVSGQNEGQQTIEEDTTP

[2] = target: T2, 4Q4K FnbA mutant (recombinant Gln103Ala, Gln105Ala, Gln783Ala, Gln830Ala, Lys157Ala, Lys503Ala, Lys620Ala, and Lys762Ala mutant, residues Ala1-Pro839)
T2 chain: T1 chain with Q105A, K157A, K503A, K620A, K762A, Q783A, Q830A

[3] = target: T3, recombinant fibronectin-binding protein A (rFnbA) comprising residues Ala1 through Pro839 from S. aureus strain ATCC49525, wild type
T3 chain: T1 chain with A103Q

B1: Factor XIIIa (Factor XIII, Haematologic Technologies, activated by thrombin) (protein)
chain 1: GVNLQEFLNVTSVHLFKERWDTNKVDHHTDKYENNKLIVRRGQSFYVQIDFSRPYDPRRDLFRVEYVIGRYPQENKGTYIPVPIVSELQSGKWGAKIVMREDRSVRLSIQSSPKCIVGKFRMYVAVWTPYGVLRTSRNPETDTYILFNPWCEDDAVYLDNEKEREEYVLNDIGVIFYGEVNDIKTRSWSYGQFEDGILDTCLYVMDRAQMDLSGRGNPIKVSRVGSAMVNAKDDEGVLVGSWDNIYAYGVPPSAWTGSVDILLEYRSSENPVRYGQCWVFAGVFNTFLRCLGIPARIVTNYFSAHDNDANLQMDIFLEEDGNVNSKLTKDSVWNYHCWNEAWMTRPDLPVGFGGWQAVDSTPQENSDGMYRCGPASVQAIKHGHVCFQFDAPFVFAEVNSDLIYITAKKDGTHVVENVDATHIGKLIVTKQIGGDGMMDITDTYKFQEGQEEERLALETALMYGAKKPLNTEGVMKSRSNVDMDFEVENAVLGKDFKLSITFRNNSHNRYTITAYLSANITFYTGVPKAEFKKETFDVTLEPLSFKKEAVLIQAGEYMGQLLEQASLHFFVTARINETRDVLAKQKSTVLTIPEIIIKVRGTQVVGSDMTVTVEFTNPLKETLRNVWVHLDGPGVTRPMKKMFREIRPNSTVQWEEVCRPWVSGHRKLIASMSSDSLRHVYGELDVQIQRRPSM
chain 2: EEKPCGFPHVENGRIAQYYYTFKSFYFPMSIDKKLSFFCLAGYTTESGRQEEQTTCTTEGWSPEPRCFKKCTKPDLSNGYISDVKLLYKIQENMRYGCASGYKTTGGKDEEVVQCLSDGWSSQPTCRKEHETCLAPELYNGNYSTTQKTFKVKDKVQYECATGYYTAGGKKTEEVECLTYGWSLTPKCTKLKCSSLRLIENGYFHPVKQTYEEGDVVQFFCHENYYLSGSDLIQCYNFGWYPESPVCEGRRNRCPPPPLPINSKIQTHSTTYRHGEIVHIECELNFEIHGSAEIRCEDGKWTEPPKCIEGQEKVACEEPPFIENGAANLHSKIYYNGDKVTYACKSGYLLHGSNEITCNRGKWTLPPECVENNENCKHPPVVMNGAVADGILASYATGSSVEYRCNEYYLLRGSKISRCEQGKWSSPPVCLEPCTVNVDYMNRNNIEMKWKYEGKVLHGDLIDFVCKQGYDLSPLTPLSELSVQCNRGEVKYPLCTRKESKGMCTSPPLIKHGVIISSTVDTYENGSSVEYRCFDHHFLEGSREAYCLDGMWTTPPLCLEPCTLSFTEMEKNNLLLKWDFDNRPHILHGEYIEFICRGDTYPAELYITGSILRMQCDRGQLKYPRCIPRQSTLSYQEPLRT
For B1, the “Factor XIIIa-catalyzed incorporation of dansylcadaverine (fluorescence of the FnbA band on SDS-PAGE)” value (shortened to “Factor XIIIa-catalyzed incorporation”) [1] was “incorporation of dansylcadaverine into the 1Q FnbA mutant was drastically reduced”, the “Factor XIIIa-catalyzed incorporation” value [2] was “Further reduction in fluorescence intensity was observed with the 4Q4K rFnbA mutant” and the “Factor XIIIa-catalyzed incorporation” value [3] was “the band corresponding to the wild-type FnbA undergoes a continual increase of fluorescence reflecting the enzymatic attachment of increasing molecules of the probe”.
